Experimental findings from US20180369322A1 (published 2018) are described below.

Numbered stars: 1 amine (or outer) side, 2 acyl side, 3 side chain; on linkers, the order of the positions; unused ones are H or OH. Bridge positions count the residues as written; N and C are the ends. Square brackets hold non-standard residues; d marks the D form. Primed or numbered codes have the meaning given here. Side chains are listed from the residue outwards. * marks the point of attachment. PEG24′ = polyethylene glycol unit with 24 repeats; Trp(7-aza) = N[C@@H](Cc1c[nH]c2ncccc12)C(=O)O; γGlu = O=C(O)[C@H](CCC(=O)[*:2])N[*:1]; Palmitoyl = CCCCCCCCCCCCCCCC(=O)*; NMeD = CN[C@@H](CC(=O)O)C(=O)O; Chg = N[C@H](C(=O)O)C1CCCCC1; Tle = CC(C)(C)[C@H](N)C(=O)O

Targets include rabbit C5 (rabbit); dog C5 (dog); human C5 (human, UniProt P01031 19-1676).
Common to all, as to assay: cell-based or functional assay
Test [1] addresses cloned hERG potassium channel (human, UniProt Q12809 1-1159).

Chain of dog C5 (dog) (P01031 whole entry): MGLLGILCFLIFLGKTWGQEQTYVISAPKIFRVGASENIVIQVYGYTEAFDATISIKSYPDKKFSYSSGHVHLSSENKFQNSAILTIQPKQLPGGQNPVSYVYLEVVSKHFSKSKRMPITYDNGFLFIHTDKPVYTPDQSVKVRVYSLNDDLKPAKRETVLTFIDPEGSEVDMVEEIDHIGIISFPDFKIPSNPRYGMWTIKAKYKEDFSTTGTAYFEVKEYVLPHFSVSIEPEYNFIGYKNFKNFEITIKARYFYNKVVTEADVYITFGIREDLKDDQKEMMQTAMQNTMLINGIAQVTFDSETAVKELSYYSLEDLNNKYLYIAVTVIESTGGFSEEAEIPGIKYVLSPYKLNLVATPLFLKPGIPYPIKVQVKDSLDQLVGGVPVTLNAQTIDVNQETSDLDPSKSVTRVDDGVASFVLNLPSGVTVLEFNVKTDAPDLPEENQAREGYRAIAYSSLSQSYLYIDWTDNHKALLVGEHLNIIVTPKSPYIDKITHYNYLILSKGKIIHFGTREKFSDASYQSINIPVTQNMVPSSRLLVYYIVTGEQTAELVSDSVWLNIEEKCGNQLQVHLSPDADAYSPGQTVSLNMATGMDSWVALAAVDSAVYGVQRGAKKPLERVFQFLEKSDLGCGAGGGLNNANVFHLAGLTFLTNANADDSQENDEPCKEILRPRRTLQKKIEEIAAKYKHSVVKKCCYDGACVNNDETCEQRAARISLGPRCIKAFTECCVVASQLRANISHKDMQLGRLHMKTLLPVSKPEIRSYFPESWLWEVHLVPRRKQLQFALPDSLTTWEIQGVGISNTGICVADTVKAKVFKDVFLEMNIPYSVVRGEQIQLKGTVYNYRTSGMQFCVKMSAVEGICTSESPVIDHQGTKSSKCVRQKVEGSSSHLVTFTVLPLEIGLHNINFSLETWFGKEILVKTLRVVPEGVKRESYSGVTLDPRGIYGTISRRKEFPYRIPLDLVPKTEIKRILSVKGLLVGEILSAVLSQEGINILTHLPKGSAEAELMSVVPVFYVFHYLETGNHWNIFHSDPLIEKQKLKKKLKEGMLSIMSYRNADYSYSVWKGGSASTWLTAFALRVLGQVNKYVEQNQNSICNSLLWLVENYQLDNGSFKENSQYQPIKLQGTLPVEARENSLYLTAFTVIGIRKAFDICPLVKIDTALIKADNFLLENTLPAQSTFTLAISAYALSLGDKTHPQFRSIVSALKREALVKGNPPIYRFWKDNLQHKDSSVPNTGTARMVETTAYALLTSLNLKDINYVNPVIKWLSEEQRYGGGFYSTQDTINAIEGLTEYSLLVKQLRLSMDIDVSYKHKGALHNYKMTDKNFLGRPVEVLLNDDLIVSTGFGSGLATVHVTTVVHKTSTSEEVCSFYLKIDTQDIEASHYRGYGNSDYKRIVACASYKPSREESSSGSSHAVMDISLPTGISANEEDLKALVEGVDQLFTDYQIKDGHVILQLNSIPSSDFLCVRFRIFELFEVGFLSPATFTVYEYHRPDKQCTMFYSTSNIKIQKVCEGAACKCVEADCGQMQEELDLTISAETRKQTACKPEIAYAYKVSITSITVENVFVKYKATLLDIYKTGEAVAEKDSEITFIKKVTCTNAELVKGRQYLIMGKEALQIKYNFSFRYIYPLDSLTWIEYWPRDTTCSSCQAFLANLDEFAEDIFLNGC
Chain of rabbit C5 (rabbit) (P01031 whole entry): as above
Chain of cloned hERG potassium channel (Q12809 whole entry): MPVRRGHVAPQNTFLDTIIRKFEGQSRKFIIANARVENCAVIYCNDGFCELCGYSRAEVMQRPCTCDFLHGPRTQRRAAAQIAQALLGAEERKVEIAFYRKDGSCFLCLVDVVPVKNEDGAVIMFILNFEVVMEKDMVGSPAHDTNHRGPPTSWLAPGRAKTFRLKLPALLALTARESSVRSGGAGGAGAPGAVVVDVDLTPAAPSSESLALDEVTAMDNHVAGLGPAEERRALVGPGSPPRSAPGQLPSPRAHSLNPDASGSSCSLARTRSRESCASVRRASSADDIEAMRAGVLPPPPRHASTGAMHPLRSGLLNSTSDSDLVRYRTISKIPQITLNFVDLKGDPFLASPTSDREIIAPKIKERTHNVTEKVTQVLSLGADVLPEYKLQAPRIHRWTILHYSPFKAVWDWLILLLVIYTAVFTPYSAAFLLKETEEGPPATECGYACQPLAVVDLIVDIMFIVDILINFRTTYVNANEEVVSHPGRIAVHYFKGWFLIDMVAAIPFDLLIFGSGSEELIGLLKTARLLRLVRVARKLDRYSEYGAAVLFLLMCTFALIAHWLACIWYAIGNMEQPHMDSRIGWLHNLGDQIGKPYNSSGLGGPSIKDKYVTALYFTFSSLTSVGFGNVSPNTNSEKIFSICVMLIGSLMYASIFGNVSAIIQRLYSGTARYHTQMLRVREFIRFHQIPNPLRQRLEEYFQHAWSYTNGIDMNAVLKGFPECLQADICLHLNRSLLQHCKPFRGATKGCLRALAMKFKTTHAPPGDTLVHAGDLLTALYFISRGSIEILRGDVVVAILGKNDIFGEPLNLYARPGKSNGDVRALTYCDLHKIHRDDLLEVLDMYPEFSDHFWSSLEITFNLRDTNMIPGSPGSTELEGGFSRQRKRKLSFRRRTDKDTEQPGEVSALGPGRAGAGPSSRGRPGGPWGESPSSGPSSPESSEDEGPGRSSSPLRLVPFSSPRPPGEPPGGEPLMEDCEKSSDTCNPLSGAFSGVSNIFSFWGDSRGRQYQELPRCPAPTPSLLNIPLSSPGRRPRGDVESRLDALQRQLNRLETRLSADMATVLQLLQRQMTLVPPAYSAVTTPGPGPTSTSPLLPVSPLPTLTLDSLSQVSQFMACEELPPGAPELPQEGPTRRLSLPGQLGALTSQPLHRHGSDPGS
Chain of human C5 (P01031 19-1676 limits assumed): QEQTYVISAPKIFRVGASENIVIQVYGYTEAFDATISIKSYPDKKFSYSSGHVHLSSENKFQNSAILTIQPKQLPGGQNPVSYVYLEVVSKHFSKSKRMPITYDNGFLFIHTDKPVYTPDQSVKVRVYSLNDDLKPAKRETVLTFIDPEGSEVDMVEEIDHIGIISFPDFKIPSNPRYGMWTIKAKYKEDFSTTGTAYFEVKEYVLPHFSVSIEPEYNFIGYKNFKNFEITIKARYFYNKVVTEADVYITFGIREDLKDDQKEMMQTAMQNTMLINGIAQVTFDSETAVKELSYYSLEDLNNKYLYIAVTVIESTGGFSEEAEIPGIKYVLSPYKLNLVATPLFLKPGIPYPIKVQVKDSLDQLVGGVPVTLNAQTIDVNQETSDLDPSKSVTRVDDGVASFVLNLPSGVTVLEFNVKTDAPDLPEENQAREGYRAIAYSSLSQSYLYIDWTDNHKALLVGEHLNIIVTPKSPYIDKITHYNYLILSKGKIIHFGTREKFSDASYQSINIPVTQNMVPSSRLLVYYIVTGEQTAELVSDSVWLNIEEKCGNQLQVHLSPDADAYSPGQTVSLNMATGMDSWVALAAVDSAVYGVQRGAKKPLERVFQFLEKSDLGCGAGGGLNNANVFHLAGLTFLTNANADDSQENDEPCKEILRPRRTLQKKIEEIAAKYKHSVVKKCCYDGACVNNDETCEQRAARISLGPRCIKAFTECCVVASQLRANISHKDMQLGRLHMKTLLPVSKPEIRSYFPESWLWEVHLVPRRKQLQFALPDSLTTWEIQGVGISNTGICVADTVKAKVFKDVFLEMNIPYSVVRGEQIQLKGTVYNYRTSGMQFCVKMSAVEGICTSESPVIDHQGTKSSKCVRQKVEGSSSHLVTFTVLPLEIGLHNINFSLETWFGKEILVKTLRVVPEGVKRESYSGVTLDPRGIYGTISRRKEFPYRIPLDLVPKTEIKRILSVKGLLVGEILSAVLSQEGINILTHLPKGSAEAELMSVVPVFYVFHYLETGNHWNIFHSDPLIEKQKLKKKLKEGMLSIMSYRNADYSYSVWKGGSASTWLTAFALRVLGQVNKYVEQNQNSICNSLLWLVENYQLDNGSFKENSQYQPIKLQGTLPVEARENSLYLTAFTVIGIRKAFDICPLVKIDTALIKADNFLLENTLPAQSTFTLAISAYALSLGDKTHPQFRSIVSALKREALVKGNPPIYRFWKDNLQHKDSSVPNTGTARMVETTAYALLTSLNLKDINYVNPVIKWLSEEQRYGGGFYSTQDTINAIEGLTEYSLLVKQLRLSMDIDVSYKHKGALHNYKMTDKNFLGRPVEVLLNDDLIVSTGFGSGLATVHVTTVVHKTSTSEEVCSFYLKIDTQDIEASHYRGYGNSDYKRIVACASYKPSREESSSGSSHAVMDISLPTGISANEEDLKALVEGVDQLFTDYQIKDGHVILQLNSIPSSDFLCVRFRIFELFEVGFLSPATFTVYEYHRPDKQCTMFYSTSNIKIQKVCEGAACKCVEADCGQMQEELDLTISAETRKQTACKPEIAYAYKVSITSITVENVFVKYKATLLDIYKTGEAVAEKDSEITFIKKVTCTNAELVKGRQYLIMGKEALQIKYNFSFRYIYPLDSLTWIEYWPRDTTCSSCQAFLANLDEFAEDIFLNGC

Consider Ac-KVERFD[NMeD][Tle]Y[Trp(7-aza)]EYP[Chg]K([PEG24′-γGlu-Palmitoyl])-OH (lactam 1-6) [R5000], for which the “IC50 of inhibition of red blood cell hemolysis, rabbit serum/plasma” value with rabbit C5 is greater than 67 µM. For the same molecule, the “IC50 of inhibition of red blood cell hemolysis, dog serum/plasma” value with dog C5 was greater than 4.7 µM. The “IC50 of inhibition of red blood cell hemolysis, human serum/plasma” value with human C5 stood at 0.0066 µM. Besides, the “IC50 of inhibition of hERG potassium channel current (parallel patch-clamp, HEK293 cells)” value in test [1] was greater than 300 µM.
